Here are results for ten molecules from patent publication US20100260748A1 (published 2010).

The target in assay [1] is T1, cynomolgus FcRH5 expressed on stably transfected SVT2 cells (cynomolgus monkey).
T1 construct: also called cyno FcRH5; cynoFcRH5
T1 chain: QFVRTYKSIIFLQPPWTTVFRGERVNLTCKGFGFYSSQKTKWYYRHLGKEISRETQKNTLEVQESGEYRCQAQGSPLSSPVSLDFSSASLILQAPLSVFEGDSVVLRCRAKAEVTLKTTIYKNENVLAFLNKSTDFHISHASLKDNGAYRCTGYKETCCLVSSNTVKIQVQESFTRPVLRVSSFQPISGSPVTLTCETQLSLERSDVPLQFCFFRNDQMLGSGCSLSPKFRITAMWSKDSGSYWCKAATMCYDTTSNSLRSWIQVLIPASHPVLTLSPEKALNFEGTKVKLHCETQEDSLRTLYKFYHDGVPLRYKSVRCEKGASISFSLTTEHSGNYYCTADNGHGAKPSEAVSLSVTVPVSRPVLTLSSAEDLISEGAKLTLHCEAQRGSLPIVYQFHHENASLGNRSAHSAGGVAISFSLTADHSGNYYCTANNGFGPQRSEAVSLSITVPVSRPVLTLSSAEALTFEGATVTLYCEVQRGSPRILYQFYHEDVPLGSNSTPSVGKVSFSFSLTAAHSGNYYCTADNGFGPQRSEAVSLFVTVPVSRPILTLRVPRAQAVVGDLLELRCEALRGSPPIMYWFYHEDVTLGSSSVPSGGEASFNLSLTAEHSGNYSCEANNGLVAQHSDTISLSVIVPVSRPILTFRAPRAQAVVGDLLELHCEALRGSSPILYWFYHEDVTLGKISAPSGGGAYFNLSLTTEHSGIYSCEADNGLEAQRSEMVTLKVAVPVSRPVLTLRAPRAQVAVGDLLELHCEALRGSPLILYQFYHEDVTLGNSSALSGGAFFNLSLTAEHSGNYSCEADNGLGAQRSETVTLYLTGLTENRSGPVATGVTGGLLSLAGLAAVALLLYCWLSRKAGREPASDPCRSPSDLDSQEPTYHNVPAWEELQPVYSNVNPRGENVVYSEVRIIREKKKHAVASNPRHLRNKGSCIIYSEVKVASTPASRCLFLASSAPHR
In words: Scatchard analysis, 0.5 nM 125I-labelled antibody competed with the same unlabelled antibody (50 to 0.02 nM), SVT2.cyFcRH5 cells, 4 h at 4 C. As for the experimental part: (§1) To further determine binding of the FcRH5 murine antibodies and IgG clones, binding of iodinated IgG variants to OPM2 cells expressing human FcRH5 and SVT2 cells expressing cynomologous FcRH5, Scatchard analysis was performed.
(§2) For Scatchard analysis, 0.5 nM I¹²⁵ labeled murine or IgG clone anti-FcRH5 was competed against unlabeled murine or IgG clone anti-FcRH5, respectively, ranging from 50 to 0.02 nM (12 step 1:2 serial dilution) in the presence of a transfected OPM2 line stably expressing human-FcRH5 and a transfected SVT2 line stably expressing cynomologous-FcRH5. After a four hour incubation at 4° C., cells were washed and cell pellet counts were read by a gamma counter (1470 WIZARD Automatic Gamma Counter; Perkin Elmer, Walthem, Mass.). All points were done in triplicate and counted for 10 minutes. The average CPM was used for Kd calculation using the New Ligand (Genentech, South San Francisco, Calif.) program.

Assay [2] deals with T2, human FcRH5 expressed on stably transfected cells (BJAB.huFcRH5, OPM2.huFcRH5) (human, UniProt Q96RD9 16-977).
T2 construct: also called OPM2-FcRH5; BJAB-FcRH5
T2 chain: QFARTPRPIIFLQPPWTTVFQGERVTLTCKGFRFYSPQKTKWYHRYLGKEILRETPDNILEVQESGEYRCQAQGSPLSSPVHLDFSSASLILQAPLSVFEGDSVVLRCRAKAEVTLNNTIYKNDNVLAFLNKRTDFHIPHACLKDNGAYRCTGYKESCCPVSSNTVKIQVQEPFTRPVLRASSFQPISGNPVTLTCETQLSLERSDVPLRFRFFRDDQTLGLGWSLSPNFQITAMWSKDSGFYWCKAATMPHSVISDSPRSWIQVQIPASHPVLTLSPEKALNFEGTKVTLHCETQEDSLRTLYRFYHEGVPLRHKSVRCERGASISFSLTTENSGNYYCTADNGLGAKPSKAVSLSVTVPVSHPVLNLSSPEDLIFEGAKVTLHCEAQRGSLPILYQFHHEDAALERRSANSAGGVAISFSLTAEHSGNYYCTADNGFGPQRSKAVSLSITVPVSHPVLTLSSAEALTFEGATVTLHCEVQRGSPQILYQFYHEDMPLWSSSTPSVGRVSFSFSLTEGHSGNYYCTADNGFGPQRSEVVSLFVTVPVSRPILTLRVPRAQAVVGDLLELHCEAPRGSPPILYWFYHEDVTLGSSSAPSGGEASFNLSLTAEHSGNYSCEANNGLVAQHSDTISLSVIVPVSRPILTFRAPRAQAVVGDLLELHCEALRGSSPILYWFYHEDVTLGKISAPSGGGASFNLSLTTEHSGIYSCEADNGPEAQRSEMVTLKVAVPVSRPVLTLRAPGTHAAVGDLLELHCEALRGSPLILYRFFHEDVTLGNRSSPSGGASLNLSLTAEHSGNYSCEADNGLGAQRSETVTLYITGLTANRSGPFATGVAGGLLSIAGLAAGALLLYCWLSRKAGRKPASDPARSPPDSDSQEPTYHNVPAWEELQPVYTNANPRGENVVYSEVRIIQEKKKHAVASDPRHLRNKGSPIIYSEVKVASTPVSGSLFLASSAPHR
In words: Scatchard analysis, 0.5 nM 125I-labelled antibody competed with the same unlabelled antibody (50 to 0.02 nM), BJAB.huFcRH5 cells, 4 h at 4 C.

Assay [3] deals with T2, human FcRH5 expressed on stably …. As to the kind of experiment: Scatchard analysis, 0.5 nM 125I-labelled antibody competed with the same unlabelled antibody (50 to 0.02 nM), OPM2.huFcRH5 cells, 4 h at 4 C. As for the experimental part: as §1, §2
The target is the same in assay [4]. In words: FACS (0.1, 1.0, 10 ug/mL ADC) on OPM2 cells stably expressing human FcRH5. Here is the method: For FACS analysis of FcRH5 antibody drug conjugates (see Example 2), FcRH5 ADCs were added in increasing concentrations (0.1, 1.0, and 10 μg/mL) to 10⁶ OPM2 cells transfected with and stably expressing human FcRH5 or SVT2 cells transfected with and stably expressing cynomolgus FcRH5 in a 100 μL reaction volume. Samples were then incubated 1 hr at […] in FACS buffer (PBS, 0.5% BSA, 0.1% sodium azide) to inhibit interalization. After washing, cells were resuspended in FACS buffer and incubated 30 min at room temperature with 20 μL mouse anti-human IgG conjugated to phycoerythrin (Ms anti-Human-PE) secondary antibody in a 100 μL reaction volume. After washing, cells were fixed in 200 μL 2% paraformaldehyde/PBS and flow cytometery performed. The same procedure was used for HuIgG, however, at only the highest concentration (10 μg/mL). The HuIgG was used as an isotype control to set baseline PMT per cell line. Flow cytomery was performed on a BD FACSCalibur® and geometric mean fluorescence intensity was recorded for each sample. Recorded data was analyzed using FlowJo v8.4.5 software (see FIGS. 20-25).

B1: murine anti-FcRH5 (10A8) monoclonal antibody (antibody, V domains shown)
VL: DIVMTQSHKFMSTSVRDRVSITCKASQDVSTAVAWYQQKPGQSPKLLIYSASYRYTGVPDRFTGSGSGTDFTFTISSVQAEDLAVYYCQQHFSSPRTFGGGTKVEIKR
VH: EVQLVESGGGLVKPGGSLKISCAASGFTFSSYAVSWVRQTPEKRLEWVATISSGGSLTFYLDSVRGRFTISRDNAKNTLYLQMSSLRSEDTAMYYCARPIPDYYALDYWGQGTSVTVSS
notes: Murine hybridoma IgG; also called 10A8.1.1; mu10A8
For B1, the results for the dissociation constant Kd in assay [1] and in assay [2] were 2.74 nM and 0.44 nM, respectively.

B2: humanized anti-FcRH5 antibody 10A8 version 1 (hu10A8 v1) (antibody, human IgG1, V domains shown)
VL: DIQMTQSPSSLSASVGDRVTITCKASQDVSTAVAWYQQKPGKAPKLLIYSASYRYTGVPSRFSGSGSGTDFTLTISSLQPEDFATYYCQQHFSSPRTFGQGTKVEIKR
VH: EVQLVESGGGLVQPGGSLRLSCAASGFTFSSYAVSWVRQAPGKGLEWVATISSGGSLTFYLDSVRGRFTISRDNSKNTLYLQMNSLRAEDTAVYYCARPIPDYYALDYWGQGTLVTVSS
notes: Full-length human IgG1 with human kappa constant domain; also called 10A8-graft; hu10A8 graft
On to B2, for which the dissociation constant (Kd) (in general, the constant that tells how readily two partners part at equilibrium) in assay [1] came to 3.04 nM; in assay [3], 1.44 nM.

B3: thio-hu10A8-HC(A118C)-MC-vc-PAB-MMAE (antibody, human IgG1, kappa)
heavy: not shown
light: DIQMTQSPSSLSASVGDRVTITCKASQDVSTAVAWYQQKPGKAPKLLIYSASYRYTGVPSRFSGSGSGTDFTLTISSLQPEDFATYYCQQHFSSPRTFGQGTKVEIKRTVAAPSVFIFPPSDEQLKSGTASVVCLLNNFYPREAKVQWKVDNALQSGNSQESVTEQDSKDSTYSLSSTLTLSKADYEKHKVYACEVTHQGLSSPVTKSFNRGEC
modifications: MC-vc-PAB-MMAE on the engineered Cys 118 (EU numbering)
notes: Antibody-drug conjugate (thioMab drug conjugate); also called thio-HC(A118C)-hu-anti-FcRH5 (10A8)-MC-vc-PAB-MMAE; Thio-HC(A118C)-hu-anti-FcRH5 (10A8)-vc-E
For B3, the binding result in assay [4] was “binds”.

B4: thio-hu10A8 v1-HC(A118C) (antibody, human IgG1, kappa)
heavy: not shown
light: DIQMTQSPSSLSASVGDRVTITCKASQDVSTAVAWYQQKPGKAPKLLIYSASYRYTGVPSRFSGSGSGTDFTLTISSLQPEDFATYYCQQHFSSPRTFGQGTKVEIKRTVAAPSVFIFPPSDEQLKSGTASVVCLLNNFYPREAKVQWKVDNALQSGNSQESVTEQDSKDSTYSLSSTLTLSKADYEKHKVYACEVTHQGLSSPVTKSFNRGEC
notes: Cysteine engineered humanized IgG1 (thioMab), unconjugated; also called thio.hu10A8.HC; Thio-hu10A8-HC(A118C)
In assay [1], B4 came in with a Kd of 3.12 nM.

B5: thio-hu10A8-LC(V205C)-MC-vc-PAB-MMAE (antibody, human IgG1, kappa)
heavy: not shown
light: DIQMTQSPSSLSASVGDRVTITCKASQDVSTAVAWYQQKPGKAPKLLIYSASYRYTGVPSRFSGSGSGTDFTLTISSLQPEDFATYYCQQHFSSPRTFGQGTKVEIKRTVAAPSVFIFPPSDEQLKSGTASVVCLLNNFYPREAKVQWKVDNALQSGNSQESVTEQDSKDSTYSLSSTLTLSKADYEKHKVYACEVTHQGLSSPCTKSFNRGEC
modifications: MC-vc-PAB-MMAE on the engineered Cys 205 (Kabat numbering)
notes: Antibody-drug conjugate (thioMab drug conjugate); also called Thio-LC(L205C)-hu-anti-FcRH5 (10A8)-vc-E
As to B5, the binding result in assay [4] is recorded as “binds”.

B6: thio-hu10A8 v1-LC(V205C) (antibody, human IgG1, kappa)
heavy: not shown
light: DIQMTQSPSSLSASVGDRVTITCKASQDVSTAVAWYQQKPGKAPKLLIYSASYRYTGVPSRFSGSGSGTDFTLTISSLQPEDFATYYCQQHFSSPRTFGQGTKVEIKRTVAAPSVFIFPPSDEQLKSGTASVVCLLNNFYPREAKVQWKVDNALQSGNSQESVTEQDSKDSTYSLSSTLTLSKADYEKHKVYACEVTHQGLSSPCTKSFNRGEC
notes: Cysteine engineered humanized IgG1 (thioMab), unconjugated; also called thio.hu10A8.LC; thio-hu10A8-LC(V205C)
Turning to B6, the Kd in assay [1] amounted to 2.63 nM.

B7: Thio-ch10A8-HC(A118C)-MC-vc-PAB-MMAE (antibody, human IgG1, kappa, name in EU numbering)
light: DIVMTQSHKFMSTSVRDRVSITCKASQDVSTAVAWYQQKPGQSPKLLIYSASYRYTGVPDRFTGSGSGTDFTFTISSVQAEDLAVYYCQQHFSSPRTFGGGTKVEIKRTVAAPSVFIFPPSDEQLKSGTASVVCLLNNFYPREAKVQWKVDNALQSGNSQESVTEQDSKDSTYSLSSTLTLSKADYEKHKVYACEVTHQGLSSPVTKSFNRGEC
heavy: not shown
modifications: MC-vc-PAB-MMAE on the engineered Cys 118 (EU numbering)
notes: Antibody-drug conjugate of thio-ch10A8.HC
Consider B7, for which the binding result in assay [4] was “binds”.

B8: chimeric anti-human FcRH5 antibody 10A8 (ch10A8) (antibody, human IgG1, kappa)
light: DIVMTQSHKFMSTSVRDRVSITCKASQDVSTAVAWYQQKPGQSPKLLIYSASYRYTGVPDRFTGSGSGTDFTFTISSVQAEDLAVYYCQQHFSSPRTFGGGTKVEIKRTVAAPSVFIFPPSDEQLKSGTASVVCLLNNFYPREAKVQWKVDNALQSGNSQESVTEQDSKDSTYSLSSTLTLSKADYEKHKVYACEVTHQGLSSPVTKSFNRGEC
heavy: not shown
notes: Murine 10A8 variable domains with human kappa and human IgG1 constant domains; also called chMAFcRH5 (10A8); chFcRH5 (10A8)
As for B8, in assay [1], binding was put at a Kd of 0.98 nM.

B9: cysteine engineered chimeric anti-FcRH5 10A8, heavy chain A118C (thio-ch10A8.HC) (antibody, human IgG1, kappa, name in EU numbering)
light: DIVMTQSHKFMSTSVRDRVSITCKASQDVSTAVAWYQQKPGQSPKLLIYSASYRYTGVPDRFTGSGSGTDFTFTISSVQAEDLAVYYCQQHFSSPRTFGGGTKVEIKRTVAAPSVFIFPPSDEQLKSGTASVVCLLNNFYPREAKVQWKVDNALQSGNSQESVTEQDSKDSTYSLSSTLTLSKADYEKHKVYACEVTHQGLSSPVTKSFNRGEC
heavy: not shown
notes: also called Thio-ch10A8-HC(A118C)
For the molecule B9, the values for the equilibrium dissociation constant (Kd) in assay [1] and in assay [3] were 1.57 nM and 0.85 nM, respectively.

B10: ch10A8-SPDB-DM4 (antibody, human IgG1, kappa)
light: DIVMTQSHKFMSTSVRDRVSITCKASQDVSTAVAWYQQKPGQSPKLLIYSASYRYTGVPDRFTGSGSGTDFTFTISSVQAEDLAVYYCQQHFSSPRTFGGGTKVEIKRTVAAPSVFIFPPSDEQLKSGTASVVCLLNNFYPREAKVQWKVDNALQSGNSQESVTEQDSKDSTYSLSSTLTLSKADYEKHKVYACEVTHQGLSSPVTKSFNRGEC
heavy: not shown
modifications: DM4 linked through the e-amino group of lysine using the SPDB linker (sites not given)
As for B10, the binding result in assay [4] is on record as “binds”.
